The target of assay [1] is T1, CD47 on the surface of A20 mouse lymphoma cells (mouse (A20 mouse lymphoma cells), UniProt Q61735 19-303).
T1 construct: whole, on cells; also called CD47 receptor; CD47 immune checkpoint
T1 sequence (looked up): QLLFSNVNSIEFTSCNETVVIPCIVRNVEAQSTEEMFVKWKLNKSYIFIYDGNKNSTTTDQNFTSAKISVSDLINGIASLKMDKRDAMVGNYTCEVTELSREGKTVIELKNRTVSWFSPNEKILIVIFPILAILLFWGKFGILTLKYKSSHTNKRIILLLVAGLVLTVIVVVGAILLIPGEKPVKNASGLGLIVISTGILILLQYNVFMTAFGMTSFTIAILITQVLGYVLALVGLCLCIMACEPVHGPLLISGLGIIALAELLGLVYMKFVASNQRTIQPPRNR
Briefly: pull-down assay on A20 cells.

Assay [2] has as its target T2, mice CTLA-4 recombinant protein (R&D systems) (mice, UniProt P09793 36-161).
T2 construct: Coated on ELISA plates at 10 µg/mL; also called recombinant CTLA-4 protein; CTLA-4 immune checkpoint
Description: ELISA on coated mouse CTLA-4, detection with anti-pVIII-HRP. A general note: An ELISA detects its analyte on a solid surface through an enzyme-linked reagent.

The target of assay [3] is T3, PD-L1 on the surface of A20 cells (mouse (A20 mouse lymphoma cells), UniProt Q9EP73 19-290).
T3 construct: whole, on cells; also called PD-L1 receptor; CD274
T3 sequence (Q9EP73 19-290): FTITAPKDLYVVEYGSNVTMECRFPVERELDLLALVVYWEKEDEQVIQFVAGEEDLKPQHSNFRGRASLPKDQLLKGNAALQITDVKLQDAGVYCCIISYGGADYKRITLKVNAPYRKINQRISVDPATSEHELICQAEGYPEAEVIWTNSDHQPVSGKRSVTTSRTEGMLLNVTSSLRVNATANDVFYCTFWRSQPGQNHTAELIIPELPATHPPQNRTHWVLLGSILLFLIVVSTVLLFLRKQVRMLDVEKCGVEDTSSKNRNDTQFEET
Description: flow cytometry on A20 cells, competition with anti-PD-L1-PE (10F.9G2).

The target in a further assay is T4, PD-L1 on A20 cells (Mus musculus, UniProt Q9EP73).
T4 construct: host or cells: A20 mouse B lymphoma cells (live for flow cytometry, formalin-fixed for ELISA)
T4 sequence (Q9EP73 19-290): as above
Description: Binding to PD-L1 on fixed A20 cells by ELISA. The note with it: nanobody 1 nM to 10 μM, detection anti-HA-HRP. The method, then:
Assessment of anti-PD-L1 displaying bacteriophages binding activity on A20 cells by EUSA. A 96 wells plate was prepared by adding in each well 100 μL of PBS comprising 1×10^5 A20 cells. The plate was then incubated 30 min to allow sedimentation of the cells. The plate was then tilted and the PBS was carefully removed. To fix the cells to the plate, 100 μL of 10% formalin was then added, and the plate was incubated for 10 min. The fixed cells were then washed gently with 100 μL of PBS and then blocked by adding 200 μL of PBS (1% BSA, 3% milk), followed a 30 min incubation periode. The blocking buffer was removed and then 100 μL of bacteriophage PEG preparation was added to the wells. The plate was incubated 1 h and then washed three times with 200 μL of PBS. To detect the bacteriophages, 100 μL of anti-HA-HRP (Cell Signaling) 1/500 diluted in PBS (3% milk, 1% BSA) was added and the plate was incubated for 1 h. […] Then, 100 μL from each well was transferred to a new plate and optical density was measured at 450 nm.
Assessment of anti-PD-L1 nanobody binding activity on A20 cells by EISA. […] Then, 100 μL from each well was transferred to a new plate and optical density was measured at 450 nm. […] Tumor sizes were then monitored twice a week using a precise caliper until tumors exceed 1500 mm^3 or until day 24 after the first injection. […]

The target in assay [4] is T3, PD-L1 on the surface of A20 cells. Description: ELISA on fixed A20 cells, detection with anti-HA-HRP.

The values below come from patent US20230372419A1, “LIVE BIOTHERAPEUTICS SECRETING SYNTHETIC BACTERIOPHAGES IN THE TREATMENT OF CANCER” (TATUM BIOSCIENCE INC., priority 2020, published 2023).

B1: synthetic bacteriophage displaying an anti-CD47 nanobody on pIII (MG1655+pTAT004+pTAT003) (other, not shown: small tags and cut ends; large carriers)
chain: QVQLVESGGGLVEPGGSLRLSCAASGIIFKINDMGWYRQAPGKRREWVAASTGGDEAIYRDSVKDRFTISRDAKNSVFLQMNSLKPEDTAVYYCTAVISTDRDGTEWRRYWGQGTQVTVSSGGLPETGG
notes: also called pTAT003 derived bacteriophages; nbCD47-pIII bacteriophages
For B1, the binding result in assay [1] was “binds”.

B2: synthetic bacteriophage displaying an anti-CTLA-4 anticalin on pIII (MG1655+pTAT004+pTAT030) (other)
chain: QDSTSDLIPAPPLSKVPLQQNFQDNQFHGKWYVVGLAGNRILRDDQHPMNMYATIYELKEDKSYNVTSVISSHKKCEYTIATFVPGSQPGEFTLGNIKSYGDKTSYLVRVVSTDYNQYAMVFFKLAEDNAEFFAITIYGRTKELASELKENFIRFSKSLGLPENHIVFPVPIDQCIDG
notes: Whole phage particle; not shown: HA-6His dual tag linker; C-terminal fragment of coat protein pIII (gpIII-C) of bacteriophage M13
For B2, in assay [2], the binding result was “binds”.

B3: synthetic bacteriophage displaying an anti-PD-L1 nanobody on pIII (MG1655+pTAT004+pTAT020) (other)
chain: QVQLVETGGGLVQPGGSLRLSCTASGFTFSMHAMTWYRQAPGKQRELVAVITSHGDRANYTDSVRGRFTISRDNTKNMVYLQMNSLKPEDTAVYYCNVPRYDSWGQGTQVTVSSGGLPETGG
notes: Whole phage particle; also called anti-PD-L1 synthetic bacteriophage; not shown: HA-6His dual tag linker; C-terminal fragment of coat protein pIII (gpIII-C) of bacteriophage M13
In the case of B3, the binding result in assay [3] was “binds”.

B4: purified anti-PD-L1 nanobody: purified anti-PD-L1 nanobody with hexahistidine and HA tags, expressed in BL21 (DE3) (protein)
VHH: QVQLVETGGGLVQPGGSLRLSCTASGFTFSMHAMTWYRQAPGKQRELVAVITSHGDRANYTDSVRGRFTISRDNTKNMVYLQMNSLKPEDTAVYYCNVPRYDSWGQGTQVTVSSGGLPETGG
modifications: left off: small tags and cut ends
Consider B4, for which, in the assay with PD-L1 on A20 cells, the “purified nanobody binding activity on A20 cells (ELISA)” value was “confirmed its binding activity on A20 cells”.

B5: synthetic bacteriophage displaying the anti-PD-L1 nanobody at the N-terminal end of pIII (MG1655+pTAT032) (other)
chain: QVQLVETGGGLVQPGGSLRLSCTASGFTFSMHAMTWYRQAPGKQRELVAVITSHGDRANYTDSVRGRFTISRDNTKNMVYLQMNSLKPEDTAVYYCNVPRYDSWGQGTQVTVSSGGLPETGG
notes: Single-vector system derived from M13mp18-Kan; also called pTAT32; anti-PD-L1 nanobody on pIII; not shown: C-terminal fragment of coat protein pIII (gpIII-C) of bacteriophage M13
As for B5, the binding result in assay [3] is recorded as “binds”.

B6: synthetic bacteriophage displaying the anti-PD-L1 nanobody inserted between the binding domain and the bacteriophage anchor domain of pIII (MG1655+pTAT033) (other)
chain: QVQLVETGGGLVQPGGSLRLSCTASGFTFSMHAMTWYRQAPGKQRELVAVITSHGDRANYTDSVRGRFTISRDNTKNMVYLQMNSLKPEDTAVYYCNVPRYDSWGQGTQVTVSSGGLPETGG
notes: Single-vector system derived from M13mp18-Kan; whole phage particle, remained infectious; also called anti-PD-L1 nanobody inserted in pIII; not shown: N-terminal part of pIII (D1/D2 domains) of bacteriophage M13; C-terminal part of pIII (gpIII-C, transmembrane region / anchor domain) of bacteriophage M13
On to B6, for which, in assay [3], the binding result is listed as “binds”.

B7: purified anti-PD-L1 nanobody with hexahistidine and HA tags fused in C-terminal (VHH)
VHH: QVQLVETGGGLVQPGGSLRLSCTASGFTFSMHAMTWYRQAPGKQRELVAVITSHGDRANYTDSVRGRFTISRDNTKNMVYLQMNSLKPEDTAVYYCNVPRYDSWGQGTQVTVSS
notes: Expressed from the pTrcHis vector in E. coli BL21 (DE3), purified on Ni-NTA; also called nbPDL1 (pTAT034); not shown: hexahistidine and HA tags fused in C-terminal
Take B7: in assay [4], the binding result is “binds”.
